{
  "source": "paper doi:10.1101/2022.09.22.509047",
  "about": "“Deciphering bacteriophage T5 host recognition mechanism and infection trigger” (bioRxiv, 2022)",
  "binders": {"B1": {"name": "bacteriophage T5 Receptor Binding Protein pb5 (natural protein)", "chain": "MSFFAGKLNNKSILSLRRGSGGDTNQHINPDSQTIFHSDMSHVIITETHSTGLRLDQGAGDYYWSEMPSRVTQLHNNDPNRVVLTEIEFSDGSRHMLSGMSMGVGAKAYGIINPQIMSQGGLKTQITASADLSLDVGYFNTGTSGTIPQKLRDGTGCQHMFGAFSGRRGFASSAMYLGGAALYKSAWSGSGYVVADAGTLTIPSDYVRHPGARNFGFNAIYVRGRSCNRVLYGMEGPNYTTGGAVQGASSSGALNFTYNPSNPESPKYSVGFARADPTNYAYWESMGDPNDSANGPIGIYSEHLGIYPSKITWYVTNLVYNGSGYNIDGGLFNGNDIKLSPREFIIKGVNVNNTSWKFINFIEKNFNVGNRADFRDVGCNLSKDSPSTGISGIATFGLPTTESNNAPSIKGGNVGGLHANVVSIYNFLPSASWYVSSNPPKIGNNYGDVWSENLLPLRLLGGSGSTILSGNIVFQGNGSVHVGTVGLDLNSSRNGAIVCTMEFIDDTWLSAGGIGCFNPTEMLSQGAEYGDSRFRIGGNTINKKLHQILSLPAGEYVPFFTIKGTVVNACKLQAAAYNPTPYWVSGLPGSVGQTGYYTLTYYMRNDGNNNISIWLDSSMSNIIGMKACLPNIKLIIQRLT", "notes": "640 residues; residues 1-37, 333-352, 365-371 and 427-455 not traced in the map; In the functional rows pb5 stands on the phage T5 tail tip (T5st0), untagged; also called RBPpb5; source: E. coli BL21(DE3), pET-28 vector, 20 °C without induction, purified; not shown: His tag, C-terminal, kept"}},
  "biological_target": "T1, E. coli iron ferrichrome transporter FhuA (E. coli, UniProt P06971 34-747)",
  "T1 construct": "FhuA, outer-membrane iron-ferrichrome transporter of E. coli; His-tag inserted in extracellular loop L5 after residue 405 (9 residues, not counted in the numbering); residues 1-17 disordered in the map; Lipopolysaccharide copurifies with FhuA; Purification is as in Flayhan et al, 2012; source: E. coli AW740, plasmid-encoded, grown with 100 µM dipyridine, purified; not shown: His6, internal (after …)",
  "T1 sequence (looked up)": "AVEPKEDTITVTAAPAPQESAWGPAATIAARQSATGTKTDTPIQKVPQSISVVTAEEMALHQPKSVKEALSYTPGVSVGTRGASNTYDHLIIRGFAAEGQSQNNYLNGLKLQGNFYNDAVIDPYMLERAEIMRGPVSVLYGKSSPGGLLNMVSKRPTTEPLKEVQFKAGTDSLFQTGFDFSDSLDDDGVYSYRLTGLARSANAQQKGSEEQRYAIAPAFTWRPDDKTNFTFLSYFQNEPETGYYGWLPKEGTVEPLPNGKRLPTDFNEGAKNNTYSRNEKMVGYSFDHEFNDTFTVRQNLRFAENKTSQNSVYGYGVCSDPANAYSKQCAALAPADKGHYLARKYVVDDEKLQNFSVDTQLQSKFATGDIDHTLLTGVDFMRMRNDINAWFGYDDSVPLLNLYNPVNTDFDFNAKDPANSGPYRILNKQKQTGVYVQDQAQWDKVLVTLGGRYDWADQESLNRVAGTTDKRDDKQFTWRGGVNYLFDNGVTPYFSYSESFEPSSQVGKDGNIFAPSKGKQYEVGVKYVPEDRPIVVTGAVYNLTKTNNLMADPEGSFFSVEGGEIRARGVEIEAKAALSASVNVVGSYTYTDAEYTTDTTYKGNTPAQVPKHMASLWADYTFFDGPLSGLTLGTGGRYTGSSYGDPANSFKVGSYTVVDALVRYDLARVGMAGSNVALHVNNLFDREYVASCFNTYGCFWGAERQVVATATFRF",
  "experiment": "cryo-EM structure; FhuA-RBPpb5 complex formed from equimolar amounts of the two purified proteins; 20 mM Tris, 1.6% C10DAO, 4.3 mg/mL; 2.6 Å average resolution",
  "conditions": "both partners purified",
  "data": [
    {"binder": "B1", "values": [
      {"measurement": "binding result", "result": "binds"}
    ]}
  ]
}
